Source: patent publication US20100280227A1 (Genentech, published 2010)
Substitutions are numbered along the chain they refer to. Values joined by “and” are separate entries in the source; they are usually repeats but may differ in a detail not shown here. Identical values can stand only once.

T1: mouse BR3 extracellular domain (mouse, UniProt Q9D8D0 1-64)
T1 construct: also called mBR3-ECD; mBR-ECD
T1 sequence: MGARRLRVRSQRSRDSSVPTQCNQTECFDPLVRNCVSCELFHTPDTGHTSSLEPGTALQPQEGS

B1: Hu11G9-36 Fab (Fab, V domains shown)
VH: EVQLVESGGGLVQPGGSLRLSCAASGDSINFGYWNWVRQAPGKGLEWVGYISYSGSTYYNPSLKSRFTISRDTSKNTFYLQMNSLRAEDTAVYYCAALNDLFLYFDVWGQGTLVTVSS
VL: DIQMTQSPSSLSASVGDRVTITCRSSQSLVHSNGNTYLHWYQQKPGKAPKLLIYKVSNRFSGVPSRFSGSGSGTDFTLTISSLQPEDFATYYCSQSTHVPPFTFGQGTKVEIKR
notes: Fab
B2: Hu11G9-46 IgG (antibody, V domains shown)
VH: B1 VH with N30T, F31S, A97G, F102Y
VL: B1 VL
notes: humanized IgG
B3: Hu11G9-36 IgG (antibody, V domains shown)
VH: B1 VH
VL: B1 VL
notes: humanized IgG
B4: Hu2.1-46 Fab (Fab, V domains shown)
VH: EVQLVESGGGLVQPGGSLRLSCAASGDSITRGYWNWVRQAPGKGLEWVGYINYSGTTYYNPSLKSRFTISRDTSKNTFYLQMNSLRAEDTAVYYCANSNFYGAMDYWGQGTLVTVSS
VL: DIQMTQSPSSLSASVGDRVTITCRASESVDDYGISFMHWYQQKPGKAPKLLIYRASDLESGVPSRFSGSGSGTDFTLTISSLQPEDFATYYCQQTSKDPWTFGQGTKVEIKR
notes: Fab
B5: Hu2.1-94 Fab (Fab, V domains shown)
VH: B4 VH with F78L, N97T, N99H, F100N, Y101T, A103E
VL: B4 VL
notes: Fab
B6: Hu2.1-40L Fab (Fab, V domains shown)
VH: B4 VH with F78L, N97T, S98T, N99L, F100P
VL: B4 VL
notes: Fab
B7: Hu2.1-30 Fab (Fab, V domains shown)
VH: B4 VH with S98L, F100Y
VL: B4 VL
notes: Fab
B8: Hu2.1-40 Fab (Fab, V domains shown)
VH: B4 VH with N97T, S98T, N99L, F100P
VL: B4 VL
notes: Fab
B9: Hu2.1-RL Fab (Fab, V domains shown)
VH: B4 VH with F78L, N97T, S98P, N99H, F100T
VL: B4 VL
notes: Fab
B10: chimeric 9.1 Fab (Fab, V domains shown)
VH: EVKLVESGGGLVQPGGSLRLSCAISGFTVTAYYMSWVRQPPGKALEWLGFIRDKANGYTTEYNPSVKGRFTISRDNSQSIFYLQMNTLRAEDSATYYCAQVRRALDYWGQGTTVTVSA
VL: DIVMSQSPSSLAVSVGEKVTMSCKSSQSLLYSSNQNNYLAWYQQKPGQSPKLLIYWASTRESGVPDRFTGSGSGTDFTLTISSVKAEDLAVYYCQQYYTYPYTFGGGT
notes: Fab with murine variable domains; also called Ch 9.1 Fab
B11: 3 (Fab, V domains shown)
VH: EVQLVESGGGLVQPGGSLRLSCAASGFTISSNSIHWVRQAPGKGLEWVAWVTPSGGSTDYADSVKGRFTISADTSKNTAYLQMNSLRAEDTAVYYCARRVCYNRLGVCAGGMDYWGQGTLVTVSS
VL: DIQMTQSPSSLSASVGDRVTITCRASQDVSTAVAWYQQKPGKAPKLLIYSASFLYSGVPSRFSGSGSGTDFTLTISSLQPEDFATYYCQQSRISPPTFGQGTKVEIKR
notes: also called V3-3
B12: 37 (Fab, V domains shown)
VH: B11 VH with T28S, S31R, N32R, V51I, S54L, G55Y, D59H
VL: B11 VL
notes: also called V3-37
B13: 5 (Fab, V domains shown)
VH: B11 VH with N32S, V51I, S54G, G55H
VL: B11 VL with S94T
notes: also called V3-5
B14: 24 (Fab, V domains shown)
VH: B11 VH with T28S, S30R, N32I, V51I, S54F, G55N, S57T
VL: B11 VL with R92L, S94T
notes: also called V3-24
B15: 19 (Fab, V domains shown)
VH: B11 VH with T28S, S30A, S31R, N32S, V51I, T52L, G55A
VL: B11 VL with S94T
notes: also called V3-19
B16: 41 (Fab, V domains shown)
VH: B11 VH with T28S, S30R, S31N, T52L, G55N, S57V
VL: B11 VL with R92G
notes: also called V3-41; clone 41
B17: 9 (Fab, V domains shown)
VH: B11 VH with V51I, G55D, S57N
VL: B11 VL with R92H, I93N, S94T
notes: also called V3-9
B18: V3-46 phage clone (Fab, V domains shown)
VH: B11 VH with S31N, N32S, T52L, G55V, S57F
VL: B11 VL with R92Q
notes: also called V3-46 WT; clone 46
B19: 27 (Fab, V domains shown)
VH: B11 VH with V51I, G55D, S57N, R104H
VL: B11 VL with I93M
notes: also called V3-27
B20: 34 (Fab, V domains shown)
VH: B11 VH with T28S, S31N, N32H, G55Y, S57I
VL: B11 VL with I93T, S94T
notes: also called V3-34
B21: 35 (Fab, V domains shown)
VH: B11 VH with S54G, G55V
VL: B11 VL with R92L, I93M, S94T
notes: also called V3-35
B22: 16 (Fab, V domains shown)
VH: B11 VH with T28S, V51I, S54T, G55H
VL: B11 VL with S94T
notes: also called V3-16

Biological target: T2, variant human BR3-Fc fusion
T2 construct: produced in CHO cells; also called vBR3-Fc; vhBR3-Fc
Test: SPR, vBR3-Fc on chip;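 note: Anti-BR3 antibodies passed over chip-bound BR3-Fc in PBS with 0.05% polysorbate 20, on and off rates fitted together globally to a 1:1 binding model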
Conditions: not given

Binder	Kd	koff	kon
B1	2.31 nM and 2.08 nM	0.00104 s⁻¹ and 0.000968 s⁻¹	450000 M⁻¹ s⁻¹ and 466000 M⁻¹ s⁻¹
B2	0.288 nM	0.000186 s⁻¹	648000 M⁻¹ s⁻¹
B3	0.4 nM	0.000231 s⁻¹	576000 M⁻¹ s⁻¹
B4	0.13 nM	0.000257 s⁻¹	1.96e+06 M⁻¹ s⁻¹
B5	1.67 nM	0.000804 s⁻¹	480000 M⁻¹ s⁻¹
B6	3.49 nM	0.00121 s⁻¹	350000 M⁻¹ s⁻¹
B7	0.07 nM and 0.092 nM	0.000157 s⁻¹ and 0.000222 s⁻¹	2.18e+06 M⁻¹ s⁻¹ and 2.41e+06 M⁻¹ s⁻¹
B8	3.2 nM	0.00123 s⁻¹	380000 M⁻¹ s⁻¹
B9	11.2 nM	0.00139 s⁻¹	120000 M⁻¹ s⁻¹

Same assay, conditions: 140 RU BR3-Fc immobilized

Binder	Kd [nM]
B10	20

Same assay, conditions: 380 RU BR3-Fc immobilized

Binder	Kd [nM]
B10	21.8

Biological target: T3, human BR3 extracellular domain (human, UniProt Q96RJ3 1-61)
T3 construct: biotinylated where used as tracer; also called hBR3-ECD; BR3-ECD
Test: SPR, BR3 ECD on chip;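 note: Anti-BR3 antibodies passed over the chip at high flow in PBS with 0.05% polysorbate 20, on and off rates fitted together globally to a 1:1 binding model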
Conditions: not given

Binder	Kd	koff	kon
B1	0.7 nM and 0.65 nM	0.00105 s⁻¹ and 0.000954 s⁻¹	1.49e+06 M⁻¹ s⁻¹ and 1.47e+06 M⁻¹ s⁻¹
B2	0.025 nM	4.2e-05 s⁻¹	1.66e+06 M⁻¹ s⁻¹
B3	0.024 nM	4.1e-05 s⁻¹	1.71e+06 M⁻¹ s⁻¹
B4	0.27 nM	0.000693 s⁻¹	2.55e+06 M⁻¹ s⁻¹
B5	0.82 nM	0.00114 s⁻¹	1.39e+06 M⁻¹ s⁻¹
B6	35.8 nM	0.00156 s⁻¹	40000 M⁻¹ s⁻¹
B7	0.08 nM and 0.059 nM	0.000311 s⁻¹ and 0.000232 s⁻¹	3.84e+06 M⁻¹ s⁻¹ and 3.94e+06 M⁻¹ s⁻¹
B8	8.67 nM	0.000923 s⁻¹	110000 M⁻¹ s⁻¹
B9	10 nM	0.00176 s⁻¹	180000 M⁻¹ s⁻¹

Biological target: T1, mouse BR3 extracellular domain
Test: phage competition ELISA
Conditions: not given

Binder	IC50 [nM]
B11	16.1
B12	1.3
B13	40.9
B14	23
B15	1.8
B16	0.6
B17	6.1
B18	0.8
B19	1.4
B20	6.4
B21	21.9
B22	16.8

Biological target: T3, human BR3 extracellular domain
Test: phage competition ELISA
Conditions: not given

Binder	IC50 [nM]
B11	1.3
B12	0.7
B13	2.5
B14	0.6
B15	1.3
B16	0.4
B17	11.6
B18	0.2
B19	9.4
B20	0.3
B21	0.8
B22	1.7
